Each block holds one molecule with its values, some of them ahead of it.
Legend:
[1] = Gel filtration (Sepharose 4B) of drug/delivery vehicle mixtures: percentage of non-associated drug; type: physicochemical; conditions: mixed with DOPC/DOPG/cholesterol vehicle (weight ratio 8.8/1/1.6), 50 mM phosphate buffer pH 6.2
Procedure: DOPC, DOPG, and cholesterol at a weight ratio of 8.8/1/1.6 were dissolved in chloroform, which was then evaporated under vacuum using a rotary evaporator. The dried mixture of the phospholipids and cholesterol thus produced was suspended in deionized water to form an aqueous suspension. The suspension is then homogenized via sonication using a cup horn sonicator (Misonix Sonicator 3000), sterilized by filtration, filled aseptically in a vial, and lyophilized to form a phospholipid-cholesterol-containing delivery vehicle. The phospholipid concentration in the vehicle was determined by a conventional phosphorus assay to ensure that the vehicle contained an appropriate total amount of the phospholipids.
The mixtures thus formed were diluted 18-100-fold in the same phosphate buffer and an aliquot of each mixture ([…]) was subjected to gel-filtration to determine the percentage of the therapeutic agent that was in non-associated form. Briefly, an aliquot of a mixture was loaded onto a Sepharose 4B column (diameter: 1.8 mm; length: 315 mm). The components in the mixture were then eluted by 50 mM phosphate buffer (pH 6.2). Fractions containing the therapeutic agent in different form, i.e., non-associated form or associated with the phospholipids, were collected, their absorbance being measured at 215 nm and 254 nm. The amount of the therapeutic agent in each fraction was determined based on the values of OD215 and OD254.

[2] = Pharmacokinetic properties of vitreous Avastin after intravitreal injection (Example 6); type: in vivo, Rabbits
Procedure: Rabbits were injected intravitreally with either Avastin alone (control rabbits) or Avastin mixed with a delivery vehicle containing DOPC/Cholesterol/DOPG at a ratio 67.5/25/7.5 (test rabbits). Vitreous Avastin concentrations of the control rabbits were examined by ELISA at days 7, 21, and 28 post injection and those of the test rabbits were examined at days 7, 21, 28, 35, 41, and 49 post injection.
In a similar study, the vitreous Avastin concentrations were monitored 7, 28, 49, 70, 91 and 112 days post intravitreal injection.

[3] = Vitreous Avastin concentration after intravitreal injection, by ELISA (Examples 2-5); type: in vivo, New Zealand White rabbits; conditions: Avastin dose 1.25 mg per eye
Procedure: The effect of the delivery vehicles mentioned above in prolonging the lifetime of Avastin in eyes was examined following the method described in Bakri et al., Ophthalmology, 2007, 114:5, 855-859. Briefly, New Zealand White rabbits were sedated by intramuscular injection of a mixture containing Zoletil (15 mg/ml) and Rompun (7 mg/ml). Both eyes of each rabbit were injected intravitreally with 50 μl of Avastin (25 mg/ml) or one of the aqueous suspensions mentioned above (at an Avastin dose of 1.25 mg per eye) using a 30-gauge needle. Rabbits were sacrificed at 7 days or 21 days after injection and their eyes were promptly enucleated. The vitreous humor was isolated from each eye together with retina and Avastin concentration was determined by ELISA as follows.
A F96 MaxiSorp™ NUNC-IMMUNO plate was coated with VEGF (10 μg/ml in PBS, pH 7.4; 100 μl/well) at 4° C. overnight. The VEGF-coated plate was washed with PBS and then blocked with a blocking buffer (5% skim milk in PBS) at room temperature for 1 hour. […] The absorbance at 450 nm (OD450) of each well was determined by an ELISA reader. Various pre-determined Avastin concentrations (3.125-25 ng/ml) were used to establish a standard Avastin concentration/OD450 curve. The Avastin concentration in each sample was determined based on its OD450 value in view of the standard curve. […]

- Percentage of Non-Associated Drug (% ± S.D.) [1]: 68.5 ± 0.5%
Molecule: C[C@@H]1C[C@H]2[C@@H]3CCC4=CC(=O)C=C[C@]4(C)[C@@]3(F)[C@@H](O)C[C@]2(C)[C@@]1(O)C(=O)COP(=O)(O)O [Dexamethasone sodium phosphate, dexamethasone sodium phosphate]

Molecule: N[C@@H](Cc1c[nH]c2ccccc12)C(=O)O [Tryptophan, tryptophan]
- Percentage of Non-Associated Drug (% ± S.D.) [1]: 86.1 ± 0.8%

- Percentage of Non-Associated Drug (% ± S.D.) [1]: 80.3 ± 0.1%
Molecule: N[C@@H](Cc1ccc(O)cc1)C(=O)O [Tyrosine, tyrosine]

Molecule: Avastin: an antibody specific to vascular endothelial growth factor
- Percentage of Non-Associated Drug (% ± S.D.) [1]: 62.1 ± 0.9%
- vitreous Avastin concentration ([2]; 28 days after intravitreal injection): 13 µg/mL
- t1/2 (half-life of intravitreal Avastin) ([2]; control rabbits, vitreous): 93.6 h
- vitreous concentration of Avastin over time (in words, FIG. 1) ([2]; days 7 to 49 after intravitreal injection): decreased much rapidly over time
- AUC(7-∞) ([2]; vitreous, from the 7th day to infinity): 3294 µg·days/mL
- AUC(7-112) ([2]; vitreous, from the 7th day to the 112th day): 3294 µg·days/mL
- AUC(112-∞) ([2]; vitreous, from the 112th day to infinity): 0 µg·days/mL
- Avastin Concentration ([3]; vitreous humor with retina, seven days after intravitreal injection): 247 ± 27 µg/mL
- Avastin Concentration ([3]; vitreous, 21 days after intravitreal injection): 37 ± 7 µg/mL

Molecule: HFRRHLC [HFRRHLC (SEQ ID NO: 1) peptide]
- Percentage of Non-Associated Drug (% ± S.D.) [1]: 71.9 ± 0.2%

Molecule: HWRGWVC [HWRGWVC (SEQ ID NO: 2) peptide]
- Percentage of Non-Associated Drug (% ± S.D.) [1]: 52.4 ± 0.2%

Molecule: bovine serum albumin
- Percentage of Non-Associated Drug (% ± S.D.) [1]: 87.2 ± 0.4%
